Assay results taken from IntAct's records for PubMed 12832462.

B1: Nuclear factor NF-kappa-B p105 subunit (Homo sapiens), P19838 (parent)
chain: MAEDDPYLGRPEQMFHLDPSLTHTIFNPEVFQPQMALPTDGPYLQILEQPKQRGFRFRYVCEGPSHGGLPGASSEKNKKSYPQVKICNYVGPAKVIVQLVTNGKNIHLHAHSLVGKHCEDGICTVTAGPKDMVVGFANLGILHVTKKKVFETLEARMTEACIRGYNPGLLVHPDLAYLQAEGGGDRQLGDREKELIRQAALQQTKEMDLSVVRLMFTAFLPDSTGSFTRRLEPVVSDAIYDSKAPNASNLKIVRMDRTAGCVTGGEEIYLLCDKVQKDDIQIRFYEEEENGGVWEGFGDFSPTDVHRQFAIVFKTPKYKDINITKPASVFVQLRRKSDLETSEPKPFLYYPEIKDKEEVQRKRQKLMPNFSDSFGGGSGAGAGGGGMFGSGGGGGGTGSTGPGYSFPHYGFPTYGGITFHPGTTKSNAGMKHGTMDTESKKDPEGCDKSDDKNTVNLFGKVIETTEQDQEPSEATVGNGEVTLTYATGTKEESAGVQDNLFLEKAMQLAKRHANALFDYAVTGDVKMLLAVQRHLTAVQDENGDSVLHLAIIHLHSQLVRDLLEVTSGLISDDIINMRNDLYQTPLHLAVITKQEDVVEDLLRAGADLSLLDRLGNSVLHLAAKEGHDKVLSILLKHKKAALLLDHPNGDGLNAIHLAMMSNSLPCLLLLVAAGADVNAQEQKSGRTALHLAVEHDNISLAGCLLLEGDAHVDSTTYDGTTPLHIAAGRGSTRLAALLKAAGADPLVENFEPLYDLDDSWENAGEDEGVVPGTTPLDMATSWQVFDILNGKPYEPEFTSDDLLAQGDMKQLAEDVKLQLYKLLEIPDPDKNWATLAQKLGLGILNNAFRLSPAPSKTLMDNYEVSGGTVRELVEALRQMGYTEAIEVIQAASSPVKTTSQAHSLPLSPASTRQQIDELRDSDSVCDSGVETSFRKLSFTESLTSGASLLTLNKMPHDYGQEGPLEGKI

Variants of: B1
Conditions: with m3k8_human MAP3K8, P41279
Chain of m3k8_human MAP3K8, P41279 (P41279 whole entry): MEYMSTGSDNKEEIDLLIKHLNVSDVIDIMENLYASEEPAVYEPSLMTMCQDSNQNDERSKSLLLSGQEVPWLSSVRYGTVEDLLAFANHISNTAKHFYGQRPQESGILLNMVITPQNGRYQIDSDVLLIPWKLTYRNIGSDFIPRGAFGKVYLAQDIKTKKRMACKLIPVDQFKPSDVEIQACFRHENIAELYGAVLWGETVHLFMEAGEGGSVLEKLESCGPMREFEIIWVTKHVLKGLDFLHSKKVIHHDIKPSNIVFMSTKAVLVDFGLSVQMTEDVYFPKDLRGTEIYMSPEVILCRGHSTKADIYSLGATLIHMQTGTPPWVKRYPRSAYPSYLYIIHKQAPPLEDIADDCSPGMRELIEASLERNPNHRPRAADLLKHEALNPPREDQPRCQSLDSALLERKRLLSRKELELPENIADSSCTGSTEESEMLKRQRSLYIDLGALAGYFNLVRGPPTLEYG

Variant	effect of a mutation on the interaction
L841A	decreasing interaction
